From US20220402983A1 (Janssen / Centocor, published 2022)
Bridges are numbered along the chain shown (N, C = ends). [ ]: non-standard residue; d: D form. The star is where a group is joined. Trp(7-Me) = Cc1cccc2c(C[C@H](N)C(=O)O)c[nH]c12; Phe(4-NH2) = Nc1ccc(C[C@H](N)C(=O)O)cc1; 2Nal = N[C@@H](Cc1ccc2ccccc2c1)C(=O)O; (N-benzyl)Asn = N-benzyl-asparagine; AEF = NCCOc1ccc(C[C@H](N)C(=O)O)cc1; αMeF = C[C@](N)(Cc1ccccc1)C(=O)O; Cit = NC(=O)NCCC[C@H](N)C(=O)O; αMeL = CC(C)C[C@](C)(N)C(=O)O; Pen = CC(C)(S)[C@H](N)C(=O)O; αMeK = C[C@](N)(CCCCN)C(=O)O; Ac5c = NC1(C(=O)O)CCCC1; Thp = NC1(C(=O)O)CCOCC1; Tfa = O=C(C(F)(F)F)*

B1: Compound No. 103 (peptide)
peptide: Ac-[Pen]NTWK(Tfa)[Pen][AEF][2Nal][αMeK]K(Ac)N[Thp]-NH2
modifications: disulfide 1-6
SMILES: CC(=O)NCCCC[C@H](NC(=O)[C@](C)(CCCCN)NC(=O)[C@H](Cc1ccc2ccccc2c1)NC(=O)[C@H](Cc1ccc(OCCN)cc1)NC(=O)[C@H]1NC(=O)[C@H](CCCCNC(=O)C(F)(F)F)NC(=O)[C@H](Cc2c[nH]c3ccccc23)NC(=O)[C@H]([C@@H](C)O)NC(=O)[C@H](CC(N)=O)NC(=O)[C@@H](NC(C)=O)C(C)(C)SSC1(C)C)C(=O)N[C@@H](CC(N)=O)C(=O)NC1(C(N)=O)CCOCC1
B2: Compound No. 108 (peptide)
peptide: Ac-[Pen]NT[Trp(7-Me)][Cit][Pen][AEF][2Nal][αMeL]K(Ac)N[Thp]-NH2
modifications: disulfide 1-6
SMILES: CC(=O)NCCCC[C@H](NC(=O)[C@](C)(CC(C)C)NC(=O)[C@H](Cc1ccc2ccccc2c1)NC(=O)[C@H](Cc1ccc(OCCN)cc1)NC(=O)[C@H]1NC(=O)[C@H](CCCNC(N)=O)NC(=O)[C@H](Cc2c[nH]c3c(C)cccc23)NC(=O)[C@H]([C@@H](C)O)NC(=O)[C@H](CC(N)=O)NC(=O)[C@@H](NC(C)=O)C(C)(C)SSC1(C)C)C(=O)N[C@@H](CC(N)=O)C(=O)NC1(C(N)=O)CCOCC1
B3: Compound No. 107 (peptide)
peptide: Ac-[Pen]NT[Trp(7-Me)]K(Ac)[Pen][AEF][2Nal][αMeK]K(Ac)N[Thp][dY]-NH2
modifications: disulfide 1-6
SMILES: CC(=O)NCCCC[C@@H]1NC(=O)[C@H](Cc2c[nH]c3c(C)cccc23)NC(=O)[C@H]([C@@H](C)O)NC(=O)[C@H](CC(N)=O)NC(=O)[C@@H](NC(C)=O)C(C)(C)SSC(C)(C)[C@@H](C(=O)N[C@@H](Cc2ccc(OCCN)cc2)C(=O)N[C@@H](Cc2ccc3ccccc3c2)C(=O)N[C@@](C)(CCCCN)C(=O)N[C@@H](CCCCNC(C)=O)C(=O)N[C@@H](CC(N)=O)C(=O)NC2(C(=O)N[C@H](Cc3ccc(O)cc3)C(N)=O)CCOCC2)NC1=O
B4: Compound No. 112 (peptide)
peptide: Ac-[Pen]NT[Trp(7-Me)]K(Ac)[Pen][AEF][2Nal][αMeK]K(Ac)N[Phe(4-NH2)]-NH2
modifications: disulfide 1-6
SMILES: CC(=O)NCCCC[C@@H]1NC(=O)[C@H](Cc2c[nH]c3c(C)cccc23)NC(=O)[C@H]([C@@H](C)O)NC(=O)[C@H](CC(N)=O)NC(=O)[C@@H](NC(C)=O)C(C)(C)SSC(C)(C)[C@@H](C(=O)N[C@@H](Cc2ccc(OCCN)cc2)C(=O)N[C@@H](Cc2ccc3ccccc3c2)C(=O)N[C@@](C)(CCCCN)C(=O)N[C@@H](CCCCNC(C)=O)C(=O)N[C@@H](CC(N)=O)C(=O)N[C@@H](Cc2ccc(N)cc2)C(N)=O)NC1=O
B5: Compound No. 106 (peptide)
peptide: Ac-[dR][Pen]NTWK(Ac)[Pen][AEF][2Nal][Thp]EN[αMeF]-NH2
modifications: disulfide 2-7
SMILES: CC(=O)NCCCC[C@@H]1NC(=O)[C@H](Cc2c[nH]c3ccccc23)NC(=O)[C@H]([C@@H](C)O)NC(=O)[C@H](CC(N)=O)NC(=O)[C@@H](NC(=O)[C@@H](CCCNC(=N)N)NC(C)=O)C(C)(C)SSC(C)(C)[C@@H](C(=O)N[C@@H](Cc2ccc(OCCN)cc2)C(=O)N[C@@H](Cc2ccc3ccccc3c2)C(=O)NC2(C(=O)N[C@@H](CCC(=O)O)C(=O)N[C@@H](CC(N)=O)C(=O)N[C@@](C)(Cc3ccccc3)C(N)=O)CCOCC2)NC1=O
B6: Compound No. 101 (peptide)
peptide: Ac-[dR][Pen]NT[Trp(7-Me)]K(Ac)[Pen][AEF][2Nal][Ac5c]EN[Thp]-NH2
modifications: disulfide 2-7
SMILES: CC(=O)NCCCC[C@@H]1NC(=O)[C@H](Cc2c[nH]c3c(C)cccc23)NC(=O)[C@H]([C@@H](C)O)NC(=O)[C@H](CC(N)=O)NC(=O)[C@@H](NC(=O)[C@@H](CCCNC(=N)N)NC(C)=O)C(C)(C)SSC(C)(C)[C@@H](C(=O)N[C@@H](Cc2ccc(OCCN)cc2)C(=O)N[C@@H](Cc2ccc3ccccc3c2)C(=O)NC2(C(=O)N[C@@H](CCC(=O)O)C(=O)N[C@@H](CC(N)=O)C(=O)NC3(C(N)=O)CCOCC3)CCCC2)NC1=O
B7: Compound No. 102 (peptide)
peptide: Ac-[dR][Pen]NTWK(Ac)[Pen][AEF][2Nal][Ac5c]EN[αMeF]-NH2
modifications: disulfide 2-7
SMILES: CC(=O)NCCCC[C@@H]1NC(=O)[C@H](Cc2c[nH]c3ccccc23)NC(=O)[C@H]([C@@H](C)O)NC(=O)[C@H](CC(N)=O)NC(=O)[C@@H](NC(=O)[C@@H](CCCNC(=N)N)NC(C)=O)C(C)(C)SSC(C)(C)[C@@H](C(=O)N[C@@H](Cc2ccc(OCCN)cc2)C(=O)N[C@@H](Cc2ccc3ccccc3c2)C(=O)NC2(C(=O)N[C@@H](CCC(=O)O)C(=O)N[C@@H](CC(N)=O)C(=O)N[C@@](C)(Cc3ccccc3)C(N)=O)CCCC2)NC1=O
B8: Compound No. 100 (peptide)
peptide: Ac-[Pen]NT[Trp(7-Me)]K(Ac)[Pen][AEF][2Nal][αMeK]K(Ac)N[αMeF][dY]-NH2
modifications: disulfide 1-6
SMILES: CC(=O)NCCCC[C@@H]1NC(=O)[C@H](Cc2c[nH]c3c(C)cccc23)NC(=O)[C@H]([C@@H](C)O)NC(=O)[C@H](CC(N)=O)NC(=O)[C@@H](NC(C)=O)C(C)(C)SSC(C)(C)[C@@H](C(=O)N[C@@H](Cc2ccc(OCCN)cc2)C(=O)N[C@@H](Cc2ccc3ccccc3c2)C(=O)N[C@@](C)(CCCCN)C(=O)N[C@@H](CCCCNC(C)=O)C(=O)N[C@@H](CC(N)=O)C(=O)N[C@@](C)(Cc2ccccc2)C(=O)N[C@H](Cc2ccc(O)cc2)C(N)=O)NC1=O
B9: Compound No. 98 (peptide)
peptide: Ac-[Pen]NTWK(Ac)[Pen][AEF][2Nal][αMeK]K(Ac)N[αMeF]-NH2
modifications: disulfide 1-6
SMILES: CC(=O)NCCCC[C@@H]1NC(=O)[C@H](Cc2c[nH]c3ccccc23)NC(=O)[C@H]([C@@H](C)O)NC(=O)[C@H](CC(N)=O)NC(=O)[C@@H](NC(C)=O)C(C)(C)SSC(C)(C)[C@@H](C(=O)N[C@@H](Cc2ccc(OCCN)cc2)C(=O)N[C@@H](Cc2ccc3ccccc3c2)C(=O)N[C@@](C)(CCCCN)C(=O)N[C@@H](CCCCNC(C)=O)C(=O)N[C@@H](CC(N)=O)C(=O)N[C@@](C)(Cc2ccccc2)C(N)=O)NC1=O
B10: Compound No. 105 (peptide)
peptide: Ac-[dR][Pen]NTWK(Ac)[Pen][AEF][2Nal][Thp]EN[Thp]-NH2
modifications: disulfide 2-7
SMILES: CC(=O)NCCCC[C@@H]1NC(=O)[C@H](Cc2c[nH]c3ccccc23)NC(=O)[C@H]([C@@H](C)O)NC(=O)[C@H](CC(N)=O)NC(=O)[C@@H](NC(=O)[C@@H](CCCNC(=N)N)NC(C)=O)C(C)(C)SSC(C)(C)[C@@H](C(=O)N[C@@H](Cc2ccc(OCCN)cc2)C(=O)N[C@@H](Cc2ccc3ccccc3c2)C(=O)NC2(C(=O)N[C@@H](CCC(=O)O)C(=O)N[C@@H](CC(N)=O)C(=O)NC3(C(N)=O)CCOCC3)CCOCC2)NC1=O
B11: Compound No. 104 (peptide)
peptide: Ac-[Pen]NT[Trp(7-Me)][Cit][Pen][AEF][2Nal][αMeL]K(Ac)N[αMeF]-NH2
modifications: disulfide 1-6
SMILES: CC(=O)NCCCC[C@H](NC(=O)[C@](C)(CC(C)C)NC(=O)[C@H](Cc1ccc2ccccc2c1)NC(=O)[C@H](Cc1ccc(OCCN)cc1)NC(=O)[C@H]1NC(=O)[C@H](CCCNC(N)=O)NC(=O)[C@H](Cc2c[nH]c3c(C)cccc23)NC(=O)[C@H]([C@@H](C)O)NC(=O)[C@H](CC(N)=O)NC(=O)[C@@H](NC(C)=O)C(C)(C)SSC1(C)C)C(=O)N[C@@H](CC(N)=O)C(=O)N[C@@](C)(Cc1ccccc1)C(N)=O
B12: Compound No. 99 (peptide)
peptide: Ac-[dR][Pen]NT[Trp(7-Me)]Q[Pen][AEF][2Nal][Ac5c]EN[Thp]-NH2
modifications: disulfide 2-7
SMILES: CC(=O)N[C@H](CCCNC(=N)N)C(=O)N[C@@H]1C(=O)N[C@@H](CC(N)=O)C(=O)N[C@@H]([C@@H](C)O)C(=O)N[C@@H](Cc2c[nH]c3c(C)cccc23)C(=O)N[C@@H](CCC(N)=O)C(=O)N[C@H](C(=O)N[C@@H](Cc2ccc(OCCN)cc2)C(=O)N[C@@H](Cc2ccc3ccccc3c2)C(=O)NC2(C(=O)N[C@@H](CCC(=O)O)C(=O)N[C@@H](CC(N)=O)C(=O)NC3(C(N)=O)CCOCC3)CCCC2)C(C)(C)SSC1(C)C

Each binder was assayed against T1, human IL-23R (interleukin-23 receptor) (human, UniProt Q5VWK5 24-629) (assay: cell-based or functional assay).
T1 sequence (looked up): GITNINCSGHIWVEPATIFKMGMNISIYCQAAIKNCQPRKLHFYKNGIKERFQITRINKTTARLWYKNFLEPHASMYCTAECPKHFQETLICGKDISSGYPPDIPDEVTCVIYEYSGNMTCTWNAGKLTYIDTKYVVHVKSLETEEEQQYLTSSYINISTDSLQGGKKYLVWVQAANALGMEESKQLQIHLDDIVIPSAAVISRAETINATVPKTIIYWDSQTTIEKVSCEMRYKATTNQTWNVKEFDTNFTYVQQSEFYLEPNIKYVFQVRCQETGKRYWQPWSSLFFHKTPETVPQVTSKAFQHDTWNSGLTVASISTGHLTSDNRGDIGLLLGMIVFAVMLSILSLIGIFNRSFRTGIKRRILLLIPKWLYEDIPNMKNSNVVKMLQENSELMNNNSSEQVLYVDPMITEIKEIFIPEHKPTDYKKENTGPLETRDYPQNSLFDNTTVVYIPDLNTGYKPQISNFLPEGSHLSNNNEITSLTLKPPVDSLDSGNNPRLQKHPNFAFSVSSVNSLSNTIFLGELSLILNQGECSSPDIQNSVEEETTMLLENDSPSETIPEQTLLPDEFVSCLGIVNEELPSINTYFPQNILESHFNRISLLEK
In the case of B1, the “PBMC pSTAT3 IC50 (nM)” value is reported as 57 nM.
In the case of Ac-[dR][Pen]QTWQ[Pen][AEF][2Nal][Thp]EN[(N-benzyl)Asn]-NH2 (disulfide 2-7) [Compound No. 110], the “PBMC pSTAT3 IC50 (nM)” value is reported as 700 nM.
B2 was tested, and the “PBMC pSTAT3 IC50 (nM)” value was 5.1 nM.
With B3 the “PBMC pSTAT3 IC50 (nM)” value was 11 nM.
For B4, the “pStat3 HTRF (nM), IC50, DB cells IL23R pSTAT3 cell assay” value was 2.09 nM.
B5 was tested, and the “PBMC pSTAT3 IC50 (nM)” value was 13 nM.
With B6 the “PBMC pSTAT3 IC50 (nM)” value was 0.74 nM.
In the case of B7, the “PBMC pSTAT3 IC50 (nM)” value is reported as 8.4 nM.
In the case of B8, the “PBMC pSTAT3 IC50 (nM)” value is reported as 21 nM.
In the case of B9, the “PBMC pSTAT3 IC50 (nM)” value is reported as 15 nM.
In the case of B10, the “PBMC pSTAT3 IC50 (nM)” value is reported as 2.2 nM.
For B11, the “PBMC pSTAT3 IC50 (nM)” value was 8.2 nM.
In the case of B12, the “PBMC pSTAT3 IC50 (nM)” value is reported as 4.2 nM.
